Measurements reported in the nanobody polyreactivity screen of Harvey et al. (2022).

Assay: yeast display, Sf9 membrane polyspecificity reagent, FACS + sequencing; frameworks hold sequencing errors
Procedure, shortened: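 Nanobodies came from a synthetic yeast display library in Saccharomyces cerevisiae BJ5465, induced with galactose for 36–48 hours and stained for 1 hour at 4 °C with 10% biotinylated, detergent-solubilized Sf9 membrane reagent. Cells were enriched on streptavidin microbeads and then FACS-sorted, with low and high (top ~1%) gates set on anti-HA fluorescence for expression and streptavidin fluorescence for reagent binding. Each polyreactivity label reflects the gate a clone came from. Genes were amplified by colony PCR, sequenced by MiSeq 2 × 250 and filtered by CDR length.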

Row | Sequence | polyreactivity (PSR sort gate)
1 | QVQLLESRGGLVQAGGSLRLSCAASGSNFDVYDMGWYRQAPGKERELVACISWDGDRTYYADSVKGRFTISRDNAKNTVYLQMKSLKPEDTAVYYCAVDSASDTIYDYWGQGTQVTVSS | low polyreactivity
2 | QVQLLESVGGLDQAGGSLRLSCAASGRTFKVYAMGWYRKATVKERELVAAISFSGGTTYYADSVKGRFTISRDNAKNTVYLQMNSLKQEDTAVSYCAAKRYGEYRARGYYYWGQGTQVTVSS | high polyreactivity
3 | QVQLLESVGGLVQAGGSLRLSCDASGYTYCGYAMGSYRQAPGKERELVAAISRSGGSTYYADTVKGRFTISRDHAKNTVYLQMNSLKPEDTAVYYCNARTEDYDGANNYWGHGTQVTVSS | low polyreactivity
4 | QVQLLETGGGLVQAGGSLRLSCAPSGFTIYRYAMGWYKQAPGKERELVAAISSGTSTYYADTVKGRFTISRDNAKKTVYLQINSLKPEVTEVYYCAVAGVSLYGTLYDYWGLGTQVTVSS | high polyreactivity
5 | QVQLLETGGGLVQAGGSLRLSCAPSGRIFRQYVMGWSRQAPGKERELVAAISRSGGTTYYADSVKGRFTISRDNAKNTVYLQMNILKPEDTAVYYCAASFRGQIVGYWGQGTQVTLSS | high polyreactivity
6 | QVQLQDSGGGLVQAGGSLRLSCAASGTIIWYSDLGWYRQAPGKERKFVAGIGFGSNSNFADSVRGRFTISRDNAKITVYLQMNSLKPEDTAVYYCEAVWFDYSTHRYWGQGTQVTVCS | high polyreactivity
7 | QVQLQDSGGGLVQAGGSLRQRCAASGYISSLAAMGWYRQAPGKERDLVAGNDLGTITNYADSVKGSLTISRDNAKNTVYLQMNSLIPEDTAVYYCAPTWYYHYNDWKHWYEYGYWGQGTQVTVSS | low polyreactivity
8 | QVQLQEGGGGLVQAGGSLRLSCAASGYIFNGDWKGWYRQAPGKERELVATINYGATTNYADSVKGRFTISRDNAKNTVYLQMNSLKPEDTAVYYCAVGGHGAQLYVYWGQGTQVTVSN | high polyreactivity
9 | QVQLQERAAWCRRAGSLRLSCAASGNISDYYFMGWYRQAPGKERELVAAIAPGSNTYYADSVKGRFTISRDNAKNTVYLQMNSLKPEDTAVCFCAANSTQYSWFDYWGQGTQVPVSS | low polyreactivity
10 | QVQLQERGGGLVQAGGSLRLTCAASGTISDSGLMGWYRQAPGKERELVAGISSGGITNYADSVKGRFTISRDNANNTVYLQMNSLKPEDNAVFWGQGSQVTVSS | low polyreactivity
11 | QVQLQERGGGLVQVGGSKRLSCAASGNIFYNYSMGWYRHAQGKEREFDDTINHGTSINYADSVKGRFTISRDKATNTGYLEMNSLKPEDTAVFYCAADRSWTDNLFYWGQGSQVTVSS | low polyreactivity
12 | QVQLQESAGGLVQAGGSLRRSCAASGSIFSNCAMGWYRQTPGKERELVASITAGGNNNYADSVKGRFTISRDNAKNTVYLPMNSLKPEETAVYYCNRRYPGPDSFEHYYYYRYDYWGQGTQVTVSS | low polyreactivity
13 | QVQLQESAGGRQPAPELRGERLYFWLLLMGWYRQAPGEERELVAGINYGASTNYSDSVKGRFTISRDNARNTVYLKMNSLKPGDTAVYYCAVWQPVLIWFYYWGQGTQVTVSS | high polyreactivity
14 | QVQLQESCGGLVQVGGSLRLSCAASVTIFIYGFLGWYRQAPGKERELVASINLGGITNYADSVKGRFTISRDNANNTVYLQMISLKPEDTAVYYCAAYVVTGQNYGYWGQGTQVTVSS | low polyreactivity
15 | QVQLQESDGGLVQAGGSLRLSCAASGSISPQYYRGWYRQAPGKEREFVAISKGTSTYYADSVKGRLTISRVNAKNTVYLQMNSLKPEDTAVYCCAAGRWLQKVHAYWDQGTQVTVSS | low polyreactivity
16 | QVQLQESGDGLVQAGGSLRLSSAASGTIFSDYGMGGYRQAPGKERELLAGISDGCNTNYTDSVKGRFTISRDNAHRVSADELPETGVYRGVLLRGCERWLLFYVYWGQGTQVTVSS | high polyreactivity
17 | QVQLQESGDGLVQAVGSLRLSCAASGYISGKYYMGWYRKAPGNERGLLDGIDACGSRTNYADCVKGRFTISRDNAHNTVYLQMNSLKPEDTAVYYCAARPDGDRLFSYWGQGTQVPVSS | low polyreactivity
18 | QVQLQESGGGLAQAGGCLRLSCAASGTIFPADSMGWYRQAPGIERELVAGITSGANTYYADSVKGRFTISHDNAKNTVYLQMDSLIPEDIAVYYCAAPGSSTYDLEYWGQGTQGTVSS | high polyreactivity
19 | QVQLQESGGGLAQAGGSLRLSCAASGTIFPADSMGWYRQAPGKERELVAGITSGANTYYADSVKGRFTISHDNAKYTVYLQMDSLIPEDIAVYYCAAPGSSTYDLEYWGQGTQVTVSS | high polyreactivity
20 | QVQLQESGGGLEPAGGSLRLSCAASGTISVHASMGWYRQAPGKERELVAGITDGANTYYADSVKGRFTISRDNSKNTVYLQMNSLKPEDTAVYYCAAYYGTAFHFTYWCQGTQVTVSS | low polyreactivity
21 | QVQLQESGGGLEQAGGSLRLSCAASGYISDIGTMGWYRQAPGKEREFVATIVVGSTTNYADSVKGRFTISRDNAKNTVYLQPQSGRYRGVLLRAWLLAVGKFTYWGQGTQETVSS | low polyreactivity
22 | QVQLQESGGGLLQADGSLRLSCAASGTIFTQSYMGWYRQAPGKEREFVAGISNGTNTNYGDSVKGRFTISRDNAKNTVYLQMNSLKLEDTAVYYCAVKGFYVDVLAYWGQGTHVTVSS | high polyreactivity

Row | Sequence | polyreactivity (PSR sort gate)
23 | QVQLQESGGGLLQAGGSLRLSCAASGIIFDNPNKGWYRQAPGKERDLVATINSGATTNYADSVKGRFTISRDNAKNTVYLQMNSLIPVDTAVYYCAVDLSPTYFYYWGQGTQVTVSS | high polyreactivity
24 | QVQLQESGGGLMQAGGSQRLSCAASGSISYYSDMAWYRQAPGKEREFVAGIGYGTSTNYADSVKGRFTTSRDNAKNTVYLQMISMKPEDTAVYYCAAYQGNGYEFYYWGQGTQVTVRS | low polyreactivity
25 | QVQLQESGGGLMQAGGSQRLSCAASGSISYYSDMGWYPQAPGKEREFVAGIGYGTTTNYADSVKGRFTTSRDNAKNTVYMQMISMKPEDTAVYYCAAYQGNGYEFYYWGQGTQVTVRS | low polyreactivity
26 | QVQLQESGGGLVKAGGSLRLSCAASGYLILQYAMGWYRPAPGKERELVASIARGTSTYYADSVKGRFTISRDNAKNTVYLQMNSLKPEDTAVYYCAVIYSWGLWHDYWGQGTQVTVSS | high polyreactivity
27 | QVQLQESGGGLVLAGGSLRLSCADSGYISWSFTMVWYRKAPGKEREFVAGITYGGITYYADSVKGRFTISRDNAKNTVYLQMNSLKPEDTAVYYCAAPQTYPYVYVYWGQGTQLTVSS | high polyreactivity
28 | QVQLQESGGGLVLAGGSLRLSCSASGNISVYGSMGWYRQAPGKEREFVATIDPGTNTNYADSVKDRFTISRDNAKNTVYLQMTSLKPEDTAVYYCAVEAGSDGPYRYWGQGTQVTVSS | low polyreactivity
29 | QVQLQESGGGLVQACGIQRLSCAATGSISEGQDMGWYSRSPGKERECVAGIAPGATTYYADSLKGRFTISRDNAKKTVYLQMTSLKPEDTAVYYCAARSVTETDHDYWGQGSQVTVSS | low polyreactivity
30 | QVQLQESGGGLVQACGSLRLSCAASGNISPQLYMGWYRQAPGKEREFVADIAEGSTTYYAESVKGRFTISRDDAKNTVYLHMISLKSEDTAVYYCAARYENAESFYYWGQGSQVTVSS | high polyreactivity
31 | QVQLQESGGGLVQACGSQRLSCAASGSICEGQDMGWYRRAPGKEREFVAGIAPGATTYYADSVKGRFTISRDNAKNTVYLQMNSLKPEDTAVYYCAARSVTETDHDSWGQGTQVTVSS | low polyreactivity
32 | QVQLQESGGGLVQAGGCLRLSCAASGTSFDPDYMGWYHQAPGKERELVASISLGRITYNADSVKGRFTINRDNAKNTVYLQMNSLKPEDTAVYYCAVRVETIYYYSYWGQGTQVTVSS | high polyreactivity
33 | QVQLQESGGGLVQAGGCLSCTASGTIFGQGDMGWYRQAPGKERELVATINDGASTYYADSVKGRFTISRDKAKNTVYLQKNSLKPDDTAGYYCAVFTDITTYFGYWGQGTQLTVSS | low polyreactivity
34 | QVQLQESGGGLVQAGGDLRLTCAASGNIFRDYIMGWYRQAPGKEREFVAGIDRGANTNYADSVKGRFTISRDNAKNTVYLQMNSLKPEDTAVYYCAVHTAIVPDFIYWGQGTQVTVSS | low polyreactivity
35 | QVQLQESGGGLVQAGGILRLSCAASGSIFHLHIMCWYRQEPGKERESVAAISNGTSTYYADSVKGRFTICRDNAKNTVYLQMNSPKPDDTAVYYCAALFLVSKHHHYWGEGTQVTVSS | low polyreactivity
36 | QVQLQESGGGLVQAGGSLCLSCAASGTIFFDGDMGWYRQAPGKEREFVAAINPGGSAYYADSVKGRLPLAAITHTVYLQMISLKPEDTAVYYCAAKLFDVYGYYYWGQGTHVTVSS | low polyreactivity
37 | QVQLQESGGGLVQAGGSLLSCAASGTISWDDEMGWYLQAPGNERELVAGIAGGGNTNYADSVKGRFTISRDNAKNTVYLQMNSLDTAVYYCAVVGFGRGTHIYWGQGTQVTVSS | high polyreactivity
38 | QVQLQESGGGLVQAGGSLLSCAASGTISWVDEMGWYLQAPGNERELVAGIAGGGNTNYADSVKGRFTISRDNAKNTVYLQMNSLDTAVYYCAVVGFGRGTHIYWGQGTQVTVSS | high polyreactivity
39 | QVQLQESGGGLVQAGGSLLSCAASGTISWVDEMGWYRQAPGNERELVAGIAGGGNTNYADSVKGRFTISRDNAKNTVYLQMNSLDTAVYYCAVVGFGGGTHIYWGQGTQVTVSS | high polyreactivity
40 | QVQLQESGGGLVQAGGSLLSCAASGTISYYREMGWYRQAPGKERELVAGIGVGTITYYADSVKGRFTISRDNAKNTVYLQMNSLKPEATAVYYCAAHIDGNDSHAYWGQGTQVTVSS | low polyreactivity
41 | QVQLQESGGGLVQAGGSLLSCAASGTISYYREMGWYRQAPGKERELVAGIGVGTITYYADSVKGRFTISRHNAINTVYMQMNSLKPEDTAVYYCAAHIDGNDSHAYWGQGTQVTVSS | low polyreactivity
42 | QVQLQESGGGLVQAGGSLRLGCAASGNISDAGYMGWYRQAPGKEREFVAAIAAGSNTNYADSVKGRFTISRDNAKNTVYLQMNSLKPEVTAVFYCAVACYARVQYEYWGQGTQVTVNS | low polyreactivity
43 | QVQLQESGGGLVQAGGSLRLSCAASGIIFDNPNMGWYRQAPGKERELVATINSGATTNYADSVKGRFTISRDNAKNTVYLQMNSLIPEDTAVYYCAVDLSPTYFYYWGQGTQVTVSS | high polyreactivity
44 | QVQLQESGGGLVQAGGSLRLSCAASGNFFDADIMGWYRQAPGKERELVASITDGGSTNYAVSVKGRFTISRGNTKNTVYLLMNCLKPEDTSVYYCAAIAYPDIPTYFDYNSDYFYWGQGTQVTVSS | high polyreactivity
